According to patent US20030036631:

Experiments:
[1] = molecular target: GST-L3cyto-Y641alone
[2] = molecular target: GST-L3cyto-Y667F
[3] = molecular target: GST-SiglecBMSL3cyto (wildtype)
[4] = molecular target: L3cyto-Y691F

B1: ZAP70 kinase (protein)
chain: MPDPAAHLPFFYGSISRAEAEEHLKLAGMADGLFLLRQCLRSLGGYVLSLVHDVRFHHFPIERQLNGTYAIAGGKAHCGPAELCEFYSRDPDGLPCNLRKPCNRPSGLEPQPGVFDCLRDAMVRDYVRQTWKLEGEALEQAIISQAPQVEKLIATTAHERMPWYHSSLTREEAERKLYSGAQTDGKFLLRPRKEQGTYALSLIYGKTVYHYLISQDKAGKYCIPEGTKFDTLWQLVEYLKLKADGLIYCLKEACPNSSASNASGAAAPTLPAHPSTLTHPQRRIDTLNSDGYTPEPARITSPDKPRPMPMDTSVYESPYSDPEELKDKKLFLKRDNLLIADIELGCGNFGSVRQGVYRMRKKQIDVAIKVLKQGTEKADTEEMMREAQIMHQLDNPYIVRLIGVCQAEALMLVMEMAGGGPLHKFLVGKREEIPVSNVAELLHQVSMGMKYLEEKNFVHRDLAARNVLLVNRHYAKISDFGLSKALGADDSYYTARSAGKWPLKWYAPECINFRKFSSRSDVWSYGVTMWEALSYGQKPYKKMKGPEVMAFIEQGKRMECPPECPPELYALMSDCWIYKWEDRPDFLTVEQRMRACYYSLASKVEGPPGSTQKAEAACA
Decrease in Wild type Phosphorylation [1]: 20% | Decrease in Wild type Phosphorylation [2]: 100% | phosphorylation of wildtype GST-SIGLECBMS-L3cyto (kinase ELISA, anti p-Tyr HRP) [3]: ZAP70 (20%)

B2: JAK3 kinase (protein)
chain: MAPPSEETPLIPQRSCSLLSTEAGALHVLLPARGPGPPQRLSFSFGDHLAEDLCVQAAKASGILPVYHSLFALATEDLSCWFPPSHIFSVEDASTQVLLYRIRFYFPNWFGLEKCHRFGLRKDLASAILDLPVLEHLFAQHRSDLVSGRLPVGLSLKEQGECLSLAVLDLARMAREQAQRPGELLKTVSYKACLPPSLRDLIQGLSFVTRRRIRRTVRRALRRVAACQADRHSLMAKYIMDLERLDPAGAAETFHVGLPGALGGHDGLGLLRVAGDGGIAWTQGEQEVLQPFCDFPEIVDISIKQAPRVGPAGEHRLVTVTRTDNQILEAEFPGLPEALSFVALVDGYFRLTTDSQHFFCKEVAPPRLLEEVAEQCHGPITLDFAINKLKTGGSRPGSYVLRRSPQDFDSFLLTVCVQNPLGPDYKGCLIRRSPTGTFLLVGLSRPHSSLRELLATCWDGGLHVDGVAVTLTSCCIPRPKEKSNLIVVQRGHSPPTSSLVQPQSQYQLSQMTFHKIPADSLEWHENLGHGSFTKIYRGCRHEVVDGEARKTEVLLKVMDAKHKNCMESFLEAASLMSQVSYRHLVLLHGVCMAGDSTMVQEFVHLGAIDMYLRKRGHLVPASWKLQVVKQLAYALNYLEDKGLPHGNVSARKVLLAREGADGSPPFIKLSDPGVSPAVLSLEMLTDRIPWVAPECLREAQTLSLEADKWGFGATVWEVFSGVTMPISALDPAKKLQFYEDRQQLPAPKWTELALLIQQCMAYEPVQRPSFRAVIRDLNSLISSDYELLSDPTPGALAPRDGLWNGAQLYACQDPTIFEERHLKYISQLGKGNFGSVELCRYDPLGDNTGALVAVKQLQHSGPDQQRDFQREIQILKALHSDFIVKYRGVSYGPGRQSLRLVMEYLPSGCLRDFLQRHRARLDASRLLLYSSQICKGMEYLGSRRCVHRDLAARNILVESEAHVKIADFGLAKLLPLDKDYYVVREPGQSPIFWYAPESLSDNIFSRQSDVWSFGVVLYELFTYCDKSCSPSAEFLRMMGCERDVPALCRLLELLEEGQRLPAPPACPAEVHELMKLCWAPSPQDRPSFSALGPQLDMLWSGSRGCETHAFTAHPEGKHHSLSFS
Decrease in Wild type Phosphorylation [2]: 50% | phosphorylation of wildtype GST-SIGLECBMS-L3cyto (kinase ELISA, anti p-Tyr HRP) [3]: JAK3 (92%) | Decrease in Wild type Phosphorylation [4]: 25%

B3: emt kinase (protein)
chain: MNNFILLEEQLIKKSQQKRRTSPSNFKVRFFVLTKASLAYFEDRHGKKRTLKGSIELSRIKCVEIVKSDISIPCHYKYPFQVVHDNYLLYVFAPDRESRQRWVLALKEETRNNNSLVPKYHPNFWMDGKWRCCSQLEKLATGCAQYDPTKNASKKPLPPTPEDNRRPLWEPEETVVIALYDYQTNDPQELALRRNEEYCLLDSSEIHWWRVQDRNGHEGYVPSSYLVEKSPNNLETYEWYNKSISRDKAEKLLLDTGKEGAFMVRDSRTAGTYTVSVFTKAVVSENNPCIKHYHIKETNDNPKRYYVAEKYVFDSIPLLINYHQHNGGGLVTRLRYPVCFGRQKAPVTAGLRYGKWVIDPSELTFVQEIGSGQFGLVHLGYWLNKDKVAIKTIREGAMSEEDFIEEAEVMMKLSHPKLVQLYGVCLEQAPICLVFEFMEHGCLSDYLRTQRGLFAAETLLGMCLDVCEGMAYLEEACVIHRDLAARNCLVGENQVIKVSDFGMTRFVLDDQYTSSTGTKFPVKWASPEVFSFSRYSSKSDVWSFGVLMWEVFSEGKIPYENRSNSEVVEDISTGFRLYKPRLASTHVYQIMNHCWKERPEDRPAFSRLLRQLAEIAESGL
Decrease in Wild type Phosphorylation [2]: 70% | phosphorylation of wildtype GST-SIGLECBMS-L3cyto (kinase ELISA, anti p-Tyr HRP) [3]: emt(65%)
